pKd: −log10 of the molar value.
Molecular target: CXCL12 (Homo sapiens) (UniProt P48061)
Test: isothermal fluorescence titration
Details: FITC-labelled tenascin-C

Chain of CXCL12 (Homo sapiens) (P48061 22-89): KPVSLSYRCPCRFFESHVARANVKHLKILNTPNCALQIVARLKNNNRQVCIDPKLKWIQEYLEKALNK

Substance: Tenascin-C, Q80YX1
- pKd: 6.00

— publication PMC10572825
